# B1: ZNF449 (parent)
# chain: HTGERPYECTVCKKRFTRRSHLIG
# B2: C22orf15 (parent)
# chain: ITQSWQVSVRVQPRGRAHLLPNPY
# Variants of: B1
# Assay: protein stability index of a GFP-peptide fusion (GPS, HEK-293T) (PSI 1-6); higher = more stable
# Settings: c terminus: a fixed tail appended
# 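Further: lentivirally expressed fusions sorted by FACS into six bins by GFP to DsRed ratio, PSI derived from sequencing read proportions per bin multiplied by bin number.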
row,Variant,protein stability index
1,R19L,1.53
2,R19M,1.53
3,R19P,1.94
4,R19Q,2.34
5,R19S,2.76
6,R19T,1.84
7,R19W,2.52
8,R19Y,2.1
9,S20A,1.44
10,S20C,1.86
11,S20D,2.46
12,S20E,2.53
13,S20F,1.9
14,S20G,2.47
15,S20H,2.37
16,S20I,1.57
17,S20K,2.26
18,S20L,2.44
19,S20M,2.21
20,S20N,2.69
21,S20P,2.31
22,S20Q,1.88
23,S20R,2.9

row,Variant,protein stability index
1,S20T,2.18
2,S20V,1.99
3,S20W,3.27
4,S20Y,3.34
5,H21A,2.22
6,H21C,2.1
7,H21D,2.27
8,H21E,2.31
9,H21F,1.83
10,H21I,1.56
11,H21L,3.45
12,H21N,2.39
13,H21P,3.26
14,H21Q,1.82
15,H21R,2.37
16,H21S,2.93
17,H21T,2.83
18,H21V,2.97
19,H21W,2.78
20,H21Y,2.35
21,L22A,3.16
22,L22C,3.46
23,L22D,2.6

row,Variant,protein stability index
1,L22E,3.43
2,L22F,1.3
3,L22H,3
4,L22I,2.23
5,L22K,2.35
6,L22M,1.86
7,L22N,2.08
8,L22Q,2.58
9,L22R,3.15
10,L22S,2.92
11,L22V,3.02
12,L22W,2.66
13,L22Y,2.33
14,I23A,2.64
15,I23C,3.61
16,I23D,2.8
17,I23F,2.42
18,I23G,1.81
19,I23H,3.06
20,I23K,4.19
21,I23L,2
22,I23M,1.7
23,I23P,2.23

row,Variant,protein stability index
1,I23R,3.41
2,I23S,2.55
3,I23T,2.41
4,I23W,2.62
5,I23Y,2.42
6,G24A,2.27
7,G24C,2.48
8,G24D,2.81
9,G24E,1.92
10,G24F,1.2
11,G24H,1.89
12,G24K,3.12
13,G24M,1.83
14,G24N,2.39
15,G24P,1.95
16,G24R,2.39
17,G24S,2.61
18,G24T,2.45
19,G24V,1.6
20,G24W,2.53
21,G24Y,2.9

# Variants of: B2
# Assay: as above
# Settings: c terminus: a fixed tail appended
row,Variant,protein stability index
1,Q3D,1.47
2,A17L,2.42
3,H18S,1.43
4,P13V,3.02
5,R16Y,3.74
6,G15N,3.33
7,P23N,3.05
8,Q12N,2.98
9,L20K,1.01
10,S8M,2.55
11,V11T,1.87
12,R14Q,2.15
13,R10W,2.02
14,N22F,1.49
15,P21Y,2.38
16,Y24S,1.34
17,A17T,2.28
18,V7W,1.5
19,P13H,2.27
20,S8F,2.21
21,L19T,2.62
22,Q12P,1.72
23,P21V,1.94
24,P13G,1.64
25,R10K,2.41

row,Variant,protein stability index
1,Q12H,2.27
2,T2D,2.46
3,Q12M,3.2
4,Q3R,1.1
5,V7Q,2.51
6,N22K,2.17
7,S4T,1.48
8,L20R,1.7
9,R14F,1.78
10,T2M,3.15
11,I1T,1.9
12,V11M,3.05
13,V7D,2.42
14,G15E,2.02
15,P21I,1.91
16,L20S,1.03
17,P23W,1.11
18,A17Y,3.21
19,G15V,2.31
20,Q12G,3.64
21,V9H,2.88
22,L19H,1.92
23,T2Q,2.53
24,L20I,2.29
25,I1C,4.55

row,Variant,protein stability index
1,S8H,2.28
2,V11Y,1.68
3,W5C,2.25
4,P23H,1.27
5,R10Y,2.12
6,V9K,1.91
7,P21H,2.78
8,V11N,2.51
9,H18Y,1.95
10,S8P,1.71
11,Q12C,1.77
12,Q6E,1.92
13,Q12Y,2.25
14,G15A,4.31
15,L20T,3.22
16,V7R,2.39
17,Q12F,3.49
18,Q3T,1.51
19,L20C,1.97
20,R16D,2.88
21,L19K,2.33
22,S4Q,1.87
23,R10A,1.83
24,R14H,2
25,R10H,1.5

row,Variant,protein stability index
1,T2W,2.62
2,R14A,3.37
3,V7H,2.68
4,H18D,2.29
5,P21A,1.29
6,V9T,1.55
7,N22R,2.33
8,R16H,1.89
9,A17N,1.7
10,V7T,2.04
11,R10T,1.98
12,P13Q,2.21
13,P23F,3.34
14,V9F,1.74
15,Q12W,2.49
16,W5H,2.57
17,P13Y,2.01
18,W5K,3.36
19,W5I,4.28
20,S4K,1.42
21,T2H,1.45
22,L19R,2.43
23,G15P,3.81
24,R14L,2.15
25,Q12E,2.61

row,Variant,protein stability index
1,V7L,1.88
2,G15Q,1.48
3,P21T,2.87
4,I1Q,1.31
5,L20H,1.51
6,V9P,1.81
7,H18A,2.9
8,S8T,3.34
9,S4N,1.73
10,V11P,1.8
11,R16V,1.24
12,Q6D,2.15
13,I1S,1.78
14,I1H,2.61
15,I1V,1.41
16,R16C,4.64
17,T2C,3.3
18,L20N,2.16
19,A17G,3.81
20,I1R,1.68
21,L19S,2.1
22,P13T,1.94
23,Q12S,2.13
24,P23S,1.92
25,H18M,1.83

row,Variant,protein stability index
1,V7A,2.77
2,S8C,1.12
3,G15C,1.97
4,H18I,1.29
5,Y24N,1.54
6,Q6S,1.9
7,H18K,1.74
8,Q3K,1.95
9,P13R,1.16
10,S4G,2.27
11,R10C,1
12,Q6T,1.77
13,W5M,1.61
14,I1K,2.18
15,S4F,3.65
16,L20P,1.17
17,I1A,2.73
18,V9M,1.34
19,W5R,2.21
20,N22Y,2.09
21,P23D,1.42
22,R16E,1.24
23,R10Q,2.09
24,P21E,1.6
25,P21N,1.68

row,Variant,protein stability index
1,W5D,2.32
2,Y24W,2.93
3,G15K,2.31
4,V7M,2.46
5,R16W,2.89
6,P23Q,1.93
7,R16Q,1
8,Q6F,4.73
9,W5V,3.07
10,Q6P,3.07
11,V7E,2.29
12,I1D,2.12
13,V7K,1.81
14,S8Y,1.8
15,A17F,1.1
16,R16I,2.26
17,Q3N,1.85
18,Y24C,1.71
19,R16L,1.69
20,R10S,1.98
21,R16F,3.25
22,H18T,2.13
23,W5F,2.29
24,G15T,1.51
25,Y24D,1.75

row,Variant,protein stability index
1,P13M,1.91
2,Q12K,1.79
3,S8R,2.73
4,V11I,4.95
5,P23I,2.08
6,Y24F,2.47
7,Q6Y,1.96
8,V11S,1.95
9,R14I,1.54
10,Q3F,2.14
11,L19N,1.49
12,V7P,2.7
13,N22P,1.17
14,R14T,1.05
15,G15F,1.97
16,L19A,2.42
17,S8D,2.65
18,T2F,2.43
19,N22T,1.89
20,H18N,2.99
21,V11H,2.49
22,Q12A,1.16
23,L20A,1.91
24,Q3S,3.25
25,A17W,2.46

row,Variant,protein stability index
1,Q3Y,4.26
2,H18E,1.36
3,V11G,2.43
4,H18Q,2.99
5,A17M,2.57
6,I1L,1.5
7,Y24A,1.39
8,P13K,1.65
9,R14N,1.98
10,L19D,1.82
11,R14K,2.25
12,S4Y,2.42
13,P23L,1.46
14,L19G,2.23
15,I1Y,3.3
16,V11D,2.45
17,T2Y,3.42
18,Y24R,2.1
19,Y24P,1.15
20,A17I,2.96
21,Q6I,2.74
22,S4P,1.65
23,Y24Q,1.47
24,Y24K,2.19
25,L19E,3.62

row,Variant,protein stability index
1,A17H,3.03
2,R10F,2.62
3,A17C,3.18
4,N22S,4.3
5,P21K,1.64
6,V9I,2.64
7,G15R,1.73
8,V7Y,1.86
9,Q3W,1.68
10,W5Y,1.84
11,Y24H,1.07
12,R10M,2.9
13,A17V,2.58
14,R16P,2.07
15,Q12D,2.27
16,T2E,1.69
17,P13D,1.86
18,R10E,1.32
19,W5L,3.62

# Reference: the supplement of paper PMC10567573
